Drawing on PMC12561426, “Dissecting the Interplay Between NRF2 and BACH1 at CsMBEs”, this text covers Kd for one molecule.

In data set [1] the target is NRF2 DBD of NRF2-sMafGχ;sMafG DBD of chimeras (Homo sapiens?;Homo sapiens?, UniProt Q16236;O15525 451-567;1-162, |). Nature of the data set: EMSA; apparent; TEV and 3C cleaved; 150 mM NaCl, 50 mM HEPES pH 7.9, 10% glycerol, 1 mM TCEP, 1 mM DTT, 2 mM MgCl2; 3 nM DNA; TEV and 3C 50 ug/mL each, 4 h 25 °C; competition then O/N 4 °C; gels 4 °C in 1X TBE. The settings on record: protein: recombinant;recombinant; tags: 3C/TEV-cleavable linker with His tags to sMafG;fused C-terminal of the linker; copies: 1;1; label: 5' fluorescein on forward strand; blunt. (In general: Mobility shift assays separate free from complexed probe on a gel.)

Data set [2] concerns the target BACH1 DBD of BACH1-sMafGχ;sMafG DBD of chimeras (Homo sapiens?;Homo sapiens?, UniProt O14867;O15525 511-627;1-162, |). The description is as above. The settings on record: protein: recombinant;recombinant; tags: 3C/TEV-cleavable linker with His tags to sMafG;fused C-terminal of the linker; copies: 1;1; label: 5' fluorescein on forward strand; blunt.

B1: HMOX1 CsMBE 30-mer (dsDNA)
DNA 1: CTCGGGACCGTGACTCAGCAGGAAAAACAC
DNA 2: GTGTTTTTCCTGCTGAGTCACGGTCCCGAG
Consider B1, for which the results for the Kd in data set [1] and in data set [2] were 58 ± 3 nM and 49 ± 1.9 nM, respectively.
